Two molecules from US10906989 (dated 2021) can be followed below.

In assay [1] the target is T1, BODIPY-labeled staphylocoagulase SC (S7C)(1-325) (Staphylococcus aureus, UniProt P17855 27-351).
T1 sequence: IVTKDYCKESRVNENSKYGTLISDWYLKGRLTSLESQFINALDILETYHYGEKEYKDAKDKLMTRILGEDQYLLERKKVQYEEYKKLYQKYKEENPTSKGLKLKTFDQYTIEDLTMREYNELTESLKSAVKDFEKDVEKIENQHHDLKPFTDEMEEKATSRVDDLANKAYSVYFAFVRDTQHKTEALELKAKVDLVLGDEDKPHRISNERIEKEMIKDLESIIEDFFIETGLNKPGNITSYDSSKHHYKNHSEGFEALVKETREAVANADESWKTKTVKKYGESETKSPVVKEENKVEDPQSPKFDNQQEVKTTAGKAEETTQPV
Put plainly: BODIPY fluorescence increase on titration, quadratic binding equation.

Assay [2] has as its target T1, BODIPY-labeled staphylocoagulase SC ….
The target of assay [3] is T2, staphylocoagulase SC(1-246), unlabeled (Staphylococcus aureus, UniProt P17855 27-272).
T2 sequence: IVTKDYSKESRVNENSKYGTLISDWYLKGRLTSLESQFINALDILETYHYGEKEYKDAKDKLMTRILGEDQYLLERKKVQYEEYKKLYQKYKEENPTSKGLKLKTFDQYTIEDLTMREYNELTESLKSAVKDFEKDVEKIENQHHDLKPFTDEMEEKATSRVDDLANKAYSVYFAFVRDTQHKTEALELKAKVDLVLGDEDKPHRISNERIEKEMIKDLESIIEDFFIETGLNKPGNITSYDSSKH

For the next assay, the target named is Mutated Peptide Ala 8 (Staphylococcus aureus). Put plainly: solid phase competitive inhibition ELISA; peptide in solution against coated …. (In general: In an ELISA, binding on a coated surface is turned into a signal by an enzyme label.)
In another assay the target is Mutated Peptide Ala 9 (Staphylococcus aureus). The description is as above.
Assay [4] deals with Mutated Peptide Ala 8 & 9 (Staphylococcus aureus). The assay is described as above.

Like-named read-outs stand apart in the source and are kept apart here.

B1: GMA-2105 murine monoclonal antibody (antibody, V domains shown)
VH: EVKLEESGGGLVQPGGSMKLSCAASGFTFSDAWMDWVRQSPEKGLEWVAEIRTKANNHATYYAESVKGRFTISRDDSKSSVYLQMNSLRAEDTGIYYCTNVYYGNNDVKDYWGQGTSVTVSP
VL: DIVMTQSQKFMSTSVGDRVSVTCKASQNVDIYVAWYQQKPGQSPKALIYSASYRFSGVPDRFTGSGSGTDFTLSISNVQSEDLAEYFCQQYNNYPYTFGGGTKLEIKR
notes: also called anti-SC(1-10) mAb; clone 2A1.5H4.B7
On to B1, for which the results for the Kd in assay [1], in assay [2] and in assay [3] were 2 nM, 0.99 nM and 4 nM, respectively. Moreover, the “stoichiometry (n)” value in assay [1] is 1.6 mol BODIPY-SC/mol GMA-2105. Besides, the stoichiometry in assay [2] was 2 mol staphylocoagulase/mol GMA-2105. The binding result (with Mutated Peptide Ala 8; in the assay with Mutated Peptide Ala 9; in assay [4]) was “binds” throughout.

B2: Chimeric GMA-2105 (antibody, V domains shown)
VH: B1 VH
VL: B1 VL
Regarding B2, in assay [2], the Kd (commonly the equilibrium constant for the complex coming apart) amounted to 0.79 nM and the stoichiometry was 2 mol staphylocoagulase/mol chimeric antibody.
